Assay results from patent US20130177579A1 (BIOALLIANCE C V, published 2013).

Key:
[1] = biological target: human transferrin receptor expressed by nonhematopoietic cancer cells (human) (UniProt P02786); experiment: FACS, SNU-16 cells, 1/5X
[2] = biological target: human transferrin receptor expressed by nonhematopoietic cancer cells (human) (UniProt P02786); experiment: FACS, COLO205 cells, 1X
[3] = biological target: human transferrin receptor expressed by nonhematopoietic cancer cells (human) (UniProt P02786); experiment: FACS, WiDr cells, 1/5X
[4] = biological target: human transferrin receptor expressed by nonhematopoietic cancer cells (human) (UniProt P02786); experiment: FACS, HEC-1-A cells, 1X
[5] = biological target: human transferrin receptor expressed by nonhematopoietic cancer cells (human) (UniProt P02786); experiment: FACS, KLE cells, 1X
[6] = biological target: human transferrin receptor expressed by nonhematopoietic cancer cells (human) (UniProt P02786); experiment: FACS, NCI-N87 cells, 1X
[7] = biological target: human transferrin receptor expressed by nonhematopoietic cancer cells (human) (UniProt P02786); experiment: FACS, WiDr cells, 1X
[8] = biological target: human transferrin receptor expressed by nonhematopoietic cancer cells (human) (UniProt P02786); experiment: FACS, SU.86.86 cells, 1X
[9] = biological target: human transferrin receptor expressed by nonhematopoietic cancer cells (human) (UniProt P02786); experiment: FACS, COLO205 cells, 1/5X
[10] = biological target: human transferrin receptor expressed by nonhematopoietic cancer cells (human) (UniProt P02786); experiment: FACS, KLE cells, 1/5X
[11] = biological target: human transferrin receptor expressed by nonhematopoietic cancer cells (human) (UniProt P02786); experiment: FACS, SNU-16 cells, 1X
[12] = biological target: human transferrin receptor expressed by nonhematopoietic cancer cells (human) (UniProt P02786); experiment: FACS, COLO205 cells, 1x
[13] = biological target: human transferrin receptor expressed by nonhematopoietic cancer cells (human) (UniProt P02786); experiment: FACS, NCI-N87 cells, 1x
[14] = biological target: human transferrin receptor expressed by nonhematopoietic cancer cells (human) (UniProt P02786); experiment: FACS, SK-OV-3 cells, 1x
[15] = biological target: human transferrin receptor expressed by nonhematopoietic cancer cells (human) (UniProt P02786); experiment: FACS, DLD-1 cells, 1x
[16] = biological target: human transferrin receptor expressed by nonhematopoietic cancer cells (human) (UniProt P02786); experiment: FACS, Panc02.03B cells, 1x
[17] = biological target: human transferrin receptor expressed by nonhematopoietic cancer cells (human) (UniProt P02786); experiment: FACS, HEC-1-A cells, 1x
[18] = biological target: human transferrin receptor expressed by nonhematopoietic cancer cells (human) (UniProt P02786); experiment: FACS, WiDr cells, 1x
[19] = biological target: human transferrin receptor expressed by nonhematopoietic cancer cells (human) (UniProt P02786); experiment: FACS, SU.86.86 cells, 1x
[20] = biological target: human transferrin receptor expressed by nonhematopoietic cancer cells (human) (UniProt P02786); experiment: FACS, SNU-16 cells, 1x
[21] = biological target: human transferrin receptor expressed by nonhematopoietic cancer cells (human) (UniProt P02786); experiment: FACS, H727 cells, 1/5X
[22] = biological target: human transferrin receptor expressed by nonhematopoietic cancer cells (human) (UniProt P02786); experiment: FACS, SK-OV-3 cells, 1/5X
[23] = biological target: human transferrin receptor expressed by nonhematopoietic cancer cells (human) (UniProt P02786); experiment: FACS, MDA-MB-453 cells, 1x
[24] = biological target: human transferrin receptor expressed by nonhematopoietic cancer cells (human) (UniProt P02786); experiment: FACS, DU145 cells, 1x
[25] = biological target: human transferrin receptor expressed by nonhematopoietic cancer cells (human) (UniProt P02786); experiment: FACS, H727 cells, 1x
[26] = biological target: human transferrin receptor expressed by nonhematopoietic cancer cells (human) (UniProt P02786); experiment: FACS, Kato III cells, 1x
[27] = biological target: human transferrin receptor expressed by nonhematopoietic cancer cells (human) (UniProt P02786); experiment: FACS, OMC-3 cells, 1x
[28] = biological target: human transferrin receptor expressed by nonhematopoietic cancer cells (human) (UniProt P02786); experiment: FACS, A549 cells, 1/5X
[29] = biological target: human transferrin receptor expressed by nonhematopoietic cancer cells (human) (UniProt P02786); experiment: FACS, A549 cells, 1X
[30] = biological target: human transferrin receptor expressed by nonhematopoietic cancer cells (human) (UniProt P02786); experiment: FACS, Panc-1 cells, 1/5X
[31] = biological target: human transferrin receptor expressed by nonhematopoietic cancer cells (human) (UniProt P02786); experiment: FACS, SK-OV-3 cells, 1X
[32] = biological target: human transferrin receptor expressed by nonhematopoietic cancer cells (human) (UniProt P02786); experiment: FACS, DU145 cells, 1X
[33] = biological target: human transferrin receptor expressed by nonhematopoietic cancer cells (human) (UniProt P02786); experiment: FACS, Panc-1 cells, 1X

Chain of human transferrin receptor expressed by nonhematopoietic cancer cells (human) (P02786 whole entry G142S): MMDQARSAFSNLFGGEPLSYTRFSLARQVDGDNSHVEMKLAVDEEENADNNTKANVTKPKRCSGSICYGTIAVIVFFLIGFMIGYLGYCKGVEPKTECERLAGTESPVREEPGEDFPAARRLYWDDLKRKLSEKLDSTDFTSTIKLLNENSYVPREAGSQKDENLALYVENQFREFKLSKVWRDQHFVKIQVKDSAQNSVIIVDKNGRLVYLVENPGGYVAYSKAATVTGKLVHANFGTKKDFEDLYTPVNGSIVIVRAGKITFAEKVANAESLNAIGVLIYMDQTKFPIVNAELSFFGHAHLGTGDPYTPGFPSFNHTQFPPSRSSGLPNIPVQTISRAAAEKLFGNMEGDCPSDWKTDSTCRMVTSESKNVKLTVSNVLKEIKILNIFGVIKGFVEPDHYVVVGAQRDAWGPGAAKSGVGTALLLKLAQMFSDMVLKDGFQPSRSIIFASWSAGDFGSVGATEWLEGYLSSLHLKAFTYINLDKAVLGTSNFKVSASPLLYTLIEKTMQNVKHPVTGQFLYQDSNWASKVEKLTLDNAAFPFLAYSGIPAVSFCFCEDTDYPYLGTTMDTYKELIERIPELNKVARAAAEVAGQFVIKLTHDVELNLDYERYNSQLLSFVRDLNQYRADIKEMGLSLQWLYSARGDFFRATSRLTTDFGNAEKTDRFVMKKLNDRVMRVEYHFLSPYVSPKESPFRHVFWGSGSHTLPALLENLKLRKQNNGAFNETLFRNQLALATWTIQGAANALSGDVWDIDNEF

B1: antibody 6-90 (antibody, mouse IgM, V domains shown)
VH: EVELQQFGIEMVKPGASVKISCKASGYIFTDYHMDWVRQSHGKSLEWIGDIDPKYDRVTYNQKFKGKASLTADKSSSTAYMELRSLTSEDTAVYYCAKTGAYGDYLAYWGQGTLVTVSA
VL: DLVMTQTPLSLPVSLGDQASISCRSSQSLVHSDGNTYFYWYLQKPGQSPKLLIYKVSNRFSGVPDRFSAGGSGTYFTLKISRVEAEDLGVYFCSQTTHFPPTFGGGTKLEIKR
notes: Mouse IgM, kappa from a hybridoma; tested as hybridoma culture supernatant
MFI [1]: 3970 MFI
MFI [2]: 7090 MFI
MFI [3]: 1080 MFI
MFI [4]: 57 MFI
MFI [5]: 890 MFI
MFI [6]: 5810 MFI
MFI [7]: 1420 MFI
MFI [8]: 3950 MFI
MFI [9]: 6160 MFI
MFI [10]: 556 MFI
MFI [11]: 4750 MFI

B2: antibody 122-72 (antibody, V domains shown)
VH: EVQLVESGGGLVQPKGSLKLSCAASGFTFNTYAMNWVRQAPGKGLEWVARIRSKSNNYATYYADSVKDRFTISRDDSQSMLYLQMNNLKTEDTAMYYCVAYGSRNYWGQGTTLTVSS
VL: DIVMTQSPSSLTVTAGEKVTMSCKSSQSLLNSGNQKNYLTWYQQKPGQPPKLLIYWASTRESGVPDRFTGSGSGTDFTLTISSVQAEDLAVYYCQNDYSYPYTFGGGTKLEIKR
notes: Mouse IgM, kappa from a hybridoma; tested as hybridoma culture supernatant; Antibody 60-43 is said to have the same CDRs
MFI [1]: 5100 MFI
MFI [12]: 6660 MFI
MFI [13]: 3940 MFI
MFI [14]: 467 MFI
MFI [3]: 2460 MFI
MFI [15]: 2500 MFI
MFI [16]: 4690 MFI
MFI [17]: 72 MFI
MFI [18]: 2480 MFI
MFI [19]: 5070 MFI
MFI [20]: 4150 MFI
MFI [21]: 319 MFI
MFI [22]: 381 MFI
MFI [23]: 53 MFI
MFI [9]: 6340 MFI
MFI [24]: 51 MFI
MFI [25]: 623 MFI
MFI [26]: 613 MFI
MFI [27]: 3460 MFI

B3: antibody 55-31 (antibody, mouse IgM, V domains shown)
VH: QVQLQQPGAELVKPGTSVKLSCKASGYNFTSYWINWVKLRPGQGLEWIGDIYPGSGSTNYNEKFKSKATLTVDTSSSTAYMQLSSLASEDSALYYCARSAYRYDWFAYWGQGTLVTVSA
VL: DIQMTQSPASLSVSVGETVTITCRASENIYSNLAWYQQKQGKSPQLLVYAATNLADGVPSRFSGSGSGTQYSLKINSLQSEDFGSYYCQHFWGTPYTFGGGTKLEIKR
notes: as for B1
MFI [28]: 711 MFI
MFI [29]: 897 MFI
MFI [4]: 1490 MFI
MFI [5]: 136 MFI
MFI [30]: 503 MFI
MFI [31]: 2370 MFI
MFI [32]: 2280 MFI
MFI [22]: 1970 MFI
MFI [8]: 154 MFI
MFI [33]: 773 MFI
MFI [10]: 87 MFI
